Measurements as given in paper PMC4742958, “NuSAP governs chromosome oscillation by facilitating the Kid-generated polar ejection force” (Nature Communications, 2016).

Target: T1, glutathione S-transferase (GST)-tagged Kid recombinant protein (human, UniProt Q14807 1-665)
T1 construct: cDNA amplified from a cDNA library extracted from HEK 293T cells, inserted into pGEX-4T-1; Vector pGEX-4T-1; The discussion calls the Kid of the gliding assay (Kid-GFP-His, another construct) full-length; nothing is said of the limits of GST-Kid; also called GST-Kid; source: E. coli BL21 (DE3) pLysS, purified (glutathione-Sepharose 4B)
T1 sequence (looked up): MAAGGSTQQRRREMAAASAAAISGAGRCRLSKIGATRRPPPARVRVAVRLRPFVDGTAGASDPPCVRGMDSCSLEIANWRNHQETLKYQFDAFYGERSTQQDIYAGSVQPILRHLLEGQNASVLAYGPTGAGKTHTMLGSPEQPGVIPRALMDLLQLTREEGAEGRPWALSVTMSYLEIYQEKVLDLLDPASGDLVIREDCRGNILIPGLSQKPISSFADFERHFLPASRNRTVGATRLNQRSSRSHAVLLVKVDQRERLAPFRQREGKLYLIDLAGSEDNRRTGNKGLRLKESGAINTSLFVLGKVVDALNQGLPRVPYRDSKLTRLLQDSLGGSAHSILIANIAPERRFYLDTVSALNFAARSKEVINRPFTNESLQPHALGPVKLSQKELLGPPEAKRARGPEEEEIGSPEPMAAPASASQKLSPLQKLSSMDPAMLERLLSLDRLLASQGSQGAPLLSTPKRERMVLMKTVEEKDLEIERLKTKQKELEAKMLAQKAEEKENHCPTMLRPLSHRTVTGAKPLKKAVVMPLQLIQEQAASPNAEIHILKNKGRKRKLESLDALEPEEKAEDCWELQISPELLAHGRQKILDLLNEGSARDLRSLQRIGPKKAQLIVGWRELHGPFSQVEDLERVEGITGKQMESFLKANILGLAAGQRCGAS
Experiment: pull-down; GST or GST-Kid (2 μg) on glutathione beads with 2 μg purified His-NuSAP; 50 mM Tris-HCl pH 7.0, 150 mM NaCl, 1 mM EGTA, 0.5% Triton X-100; 3 h at 4 °C; NuSAP blotted with anti-NuSAP antibody
Settings: both partners purified

binding result: binds
B1: His-tagged NuSAP recombinant protein (natural protein, human (cDNA library from HEK 293T cells), UniProt Q9BXS6 1-441, looked up)
chain: MIIPSLEELDSLKYSDLQNLAKSLGLRANLRATKLLKALKGYIKHEARKGNENQDESQTSASSCDETEIQISNQEEAERQPLGHVTKTRRRCKTVRVDPDSQQNHSEIKISNPTEFQNHEKQESQDLRATAKVPSPPDEHQEAENAVSSGNRDSKVPSEGKKSLYTDESSKPGKNKRTAITTPNFKKLHEAHFKEMESIDQYIERKKKHFEEHNSMNELKQQPINKGGVRTPVPPRGRLSVASTPISQRRSQGRSCGPASQSTLGLKGSLKRSAISAAKTGVRFSAATKDNEHKRSLTKTPARKSAHVTVSGGTPKGEAVLGTHKLKTITGNSAAVITPFKLTTEATQTPVSNKKPVFDLKASLSRPLNYEPHKGKLKPWGQSKENNYLNQHVNRINFYKKTYKQPHLQTKEEQRKKREQERKEKKAKVLGMRRGLILAED
notes: NuSAP; cDNA amplified from a cDNA library extracted from HEK 293T cells, inserted into pET28b; Vector pET28b; also called His-NuSAP; source: E. coli BL21 (DE3) pLysS, purified (Ni-NTA agarose)
